Where no end group is shown, it is not given here.
Tests used:
[1] = biological target: T1, rat CDH17 fused to moxGFP, overexpressed on HEK293T cells (rat, UniProt P55281 22-827); experiment: flow cytometry on HEK293T rat CDH17mGFP mass population, 20 µg/ml
T1 construct: whole, on cells; also called HEK293T Rat CDH17mGFP mass pop; rat CDH17-moxGFP

[2] = biological target: T2, human cadherin-17 (CDH17), endogenously expressed on human cancer cell lines (LS513, SNU-C1, PaTu8988s, … (human, UniProt Q12864 23-832)); experiment: flow cytometry (iQue) on LS513 cells, 1 µg Ab
T2 construct: also called LS513 (Colon, CDH17+); HPAF2

[3] = biological target: T3, human CDH17-mGFP fusion protein overexpressed on HEK293T cells (clone G11) (human, UniProt Q12864 23-832); experiment: flow cytometry on HEK293T human CDH17mGFP G11, 20 µg/ml
T3 construct: also called HEK293T CDH17mGFP Clone G11; HEK293T Human CDH17mGFP G11; not shown: mGFP fluorescent protein fused to CDH17

Peptide 6 = biological target: T4, Peptide 6 (also: biotin label, position not given here); experiment: titration ELISA, biotinylated peptide on streptavidin-coated plate
T4 construct: LDANGII with the sixth residue I changed to A; also called LDANGAI
T4 peptide: LDANGAI

Peptide 7 [4] = biological target: T5, Peptide 7 (also: biotin label, position not given here); experiment: as above
T5 construct: LDANGII with the seventh residue I changed to A; also called LDANGIA
T5 peptide: LDANGIA

Peptide 5 = biological target: T6, Peptide 5 (also: biotin label, position not given here); experiment: as above
T6 construct: LDANGII with the fifth residue G changed to A; also called LDANAII
T6 peptide: LDANAII

Peptide 4 = biological target: T7, Peptide 4 (also: biotin label, position not given here); experiment: as above
T7 construct: LDANGII with the fourth residue N changed to A; also called LDAAGII
T7 peptide: LDAAGII

Peptide 1 [5] = biological target: T8, Peptide 1 (also: biotin label, position not given here); experiment: as above
T8 construct: also called Original 7-mer peptide; LDANGII
T8 peptide: LDANGII

Peptide 3 = biological target: T9, Peptide 3 (also: biotin label, position not given here); experiment: as above
T9 construct: LDANGII with the second residue D changed to A; also called LAANGII
T9 peptide: LAANGII

Peptide 2 [6] = biological target: T10, Peptide 2 (also: biotin label, position not given here); experiment: as above
T10 construct: LDANGII with the first residue L changed to A; also called ADANGII
T10 peptide: ADANGII

Peptide 8 [7] = biological target: T11, Peptide 8 (also: biotin label, position not given here); experiment: as above
T11 construct: LDANGII with the third residue A changed to G; also called LDGNGII
T11 peptide: LDGNGII

[8] = biological target: T12, mouse CDH17-mGFP fusion protein overexpressed on HEK293T cells (mouse, UniProt Q9R100 26-827); experiment: flow cytometry on HEK293T mouse CDH17mGFP mass population, 20 µg/ml
T12 construct: also called HEK293T Mouse CDH17mGFP mass; not shown: mGFP fluorescent protein

[9] = biological target: T2, human cadherin-17 (CDH17), endogenously …; experiment: flow cytometry (iQue) on PATU8988S cells, 1 µg Ab
[10] = biological target: T2, human cadherin-17 (CDH17), endogenously …; experiment: flow cytometry (iQue) on LS513 cells, 0.2 µg Ab
Peptide 7 [11] = biological target: T5, Peptide 7; experiment: titration ELISA, antibody 1500 to 0.157 ng/ml, biotinylated peptide on streptavidin-coated plate
Peptide 1 [12] = biological target: T8, Peptide 1; experiment: as above
Peptide 2 [13] = biological target: T10, Peptide 2; experiment: as above
Peptide 8 [14] = biological target: T11, Peptide 8; experiment: as above
[15] = biological target: T2, human cadherin-17 (CDH17), endogenously …; experiment: flow cytometry (iQue) on PATU8988S cells, 0.2 µg Ab
[16] = biological target: T12, mouse CDH17-mGFP fusion protein …; experiment: flow cytometry (BD C6) on HEK293T Mouse CDH17 mGFP cells
Description: To determine relative antigen binding strengths of the humanized antibodies, FACS assays were carried out as essentially described in Example 1. […] Using a BD Biosciences Accuri™ C6 Flow Cytometer (San Jose, CA), antibody binding based on Alexa Fluor® 647 fluorescence was measured in the FL4-H channel and fusion protein overexpression based on GFP fluorescence was measured in the FL1-H channel.

T12 sequence (Q9R100 26-827): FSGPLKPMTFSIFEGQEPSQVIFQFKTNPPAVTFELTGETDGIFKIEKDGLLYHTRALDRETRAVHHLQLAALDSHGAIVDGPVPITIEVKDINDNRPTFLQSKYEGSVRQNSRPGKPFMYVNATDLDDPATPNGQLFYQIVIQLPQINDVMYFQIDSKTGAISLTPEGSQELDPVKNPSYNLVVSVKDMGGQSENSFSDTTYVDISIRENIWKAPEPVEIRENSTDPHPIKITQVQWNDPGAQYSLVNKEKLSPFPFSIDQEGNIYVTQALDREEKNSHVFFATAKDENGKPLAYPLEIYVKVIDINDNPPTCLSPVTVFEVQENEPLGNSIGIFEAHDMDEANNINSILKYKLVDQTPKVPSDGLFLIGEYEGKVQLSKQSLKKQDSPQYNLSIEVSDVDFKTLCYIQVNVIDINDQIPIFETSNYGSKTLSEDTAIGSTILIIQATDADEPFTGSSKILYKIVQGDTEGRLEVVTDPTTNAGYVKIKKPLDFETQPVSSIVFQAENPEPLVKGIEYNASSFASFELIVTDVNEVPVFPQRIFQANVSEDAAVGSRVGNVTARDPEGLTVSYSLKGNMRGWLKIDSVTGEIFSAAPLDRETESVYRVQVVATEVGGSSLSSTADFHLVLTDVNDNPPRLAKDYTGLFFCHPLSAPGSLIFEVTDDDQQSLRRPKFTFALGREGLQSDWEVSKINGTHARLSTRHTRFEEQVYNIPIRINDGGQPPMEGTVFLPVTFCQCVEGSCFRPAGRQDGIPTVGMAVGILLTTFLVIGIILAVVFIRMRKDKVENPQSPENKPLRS
T1 sequence (P55281 22-827): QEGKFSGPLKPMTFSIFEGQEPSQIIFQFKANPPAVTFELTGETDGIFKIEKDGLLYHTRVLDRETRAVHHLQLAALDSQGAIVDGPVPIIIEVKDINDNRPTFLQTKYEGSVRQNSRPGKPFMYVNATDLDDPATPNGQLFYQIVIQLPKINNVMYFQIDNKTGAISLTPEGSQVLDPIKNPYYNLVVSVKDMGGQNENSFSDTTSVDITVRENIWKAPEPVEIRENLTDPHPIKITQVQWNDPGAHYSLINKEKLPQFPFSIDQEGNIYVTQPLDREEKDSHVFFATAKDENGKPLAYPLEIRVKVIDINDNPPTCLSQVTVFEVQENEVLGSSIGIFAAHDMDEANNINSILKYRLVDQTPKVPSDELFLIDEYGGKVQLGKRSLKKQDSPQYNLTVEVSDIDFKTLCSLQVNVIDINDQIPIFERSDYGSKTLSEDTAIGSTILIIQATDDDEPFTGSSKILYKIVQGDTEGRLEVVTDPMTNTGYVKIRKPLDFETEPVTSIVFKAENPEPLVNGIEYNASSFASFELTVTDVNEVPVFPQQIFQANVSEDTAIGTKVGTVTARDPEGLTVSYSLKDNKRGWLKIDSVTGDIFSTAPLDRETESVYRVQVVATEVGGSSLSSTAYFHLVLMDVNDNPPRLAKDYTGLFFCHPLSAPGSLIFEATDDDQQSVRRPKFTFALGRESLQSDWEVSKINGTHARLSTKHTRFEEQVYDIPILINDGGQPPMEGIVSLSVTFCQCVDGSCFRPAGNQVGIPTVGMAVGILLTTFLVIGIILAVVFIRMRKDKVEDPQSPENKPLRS

Cross Reactivity by Flow [1]: 2160 | Antibody Binding Activity by Flow iQue [2]: 2.3e+06 | Cross Reactivity by Flow [3]: 57600 | ELISA reading at 1500 ng/ml antibody, lower of two rows (Peptide 6): 0.0357 | ELISA reading at 1500 ng/ml antibody, upper of two rows (Peptide 6): 0.0371 | binding result (Peptide 6): no binding (tested: 1500 ng/ml) | ELISA reading at 1500 ng/ml antibody, lower of two rows (Peptide 7 [4]): 2.74 | ELISA reading at 1500 ng/ml antibody, upper of two rows (Peptide 7 [4]): 2.8 | ELISA reading at 1500 ng/ml antibody, lower of two rows (Peptide 5): 0.0383 | ELISA reading at 1500 ng/ml antibody, upper of two rows (Peptide 5): 0.0394 | binding result (Peptide 5): no binding (tested: 1500 ng/ml) | ELISA reading at 1500 ng/ml antibody, lower of two rows (Peptide 4): 0.038 | ELISA reading at 1500 ng/ml antibody, upper of two rows (Peptide 4): 0.0379 | binding result (Peptide 4): no binding (tested: 1500 ng/ml) | ELISA reading at 1500 ng/ml antibody, lower of two rows (Peptide 1 [5]): 2.76 | ELISA reading at 1500 ng/ml antibody, upper of two rows (Peptide 1 [5]): 3.1 | ELISA reading at 1500 ng/ml antibody, lower of two rows (Peptide 3): 0.0369 | ELISA reading at 1500 ng/ml antibody, upper of two rows (Peptide 3): 0.0377 | binding result (Peptide 3): no binding (tested: 1500 ng/ml) | ELISA reading at 1500 ng/ml antibody, lower of two rows (Peptide 2 [6]): 2.71 | ELISA reading at 1500 ng/ml antibody, upper of two rows (Peptide 2 [6]): 2.65 | ELISA reading at 1500 ng/ml antibody, lower of two rows (Peptide 8 [7]): 2.14 | ELISA reading at 1500 ng/ml antibody, upper of two rows (Peptide 8 [7]): 2.1 | Cross Reactivity by Flow [8]: 2420 | Antibody Binding Activity by Flow iQue [9]: 101000 | Antibody Binding Activity by Flow iQue [10]: 2.24e+06 | EC50 (Peptide 7 [11]): 0.117 nM | EC50 (Peptide 1 [12]): 0.16 nM | EC50 (Peptide 2 [13]): 0.126 nM | EC50 (Peptide 8 [14]): 2.98 nM | Antibody Binding Activity by Flow iQue [15]: 102000 | binding result [16]: no binding (tested: 1 µg)
B1: humanized anti-CDH17 antibody 07-0663-h7 (antibody, human IgG1, kappa, V domains shown)
VH: QVQLVQSGAEVKKPGSSVKISCKVSGYTFTDHTIHWMRQAPGQGLEWIGYIFPRDDIVVYAQKFQGRATLTADKSTSTAYMELSSLRSEDTAVYYCARPPYYYSRNFYFDYWGQGTTLTVSS
VL: DIQMTQSPSSLSASVGDRVTITCRVSSIISSSKLHWYQQKPGKAPKPLIYGTSTLASGVPSRFSGSGSGTDYTLTISSLQPEDFATYYCQQWSNYPFTFGQGTKLEIKR
notes: Human IgG1 / kappa
